Experimental findings from the supplement of paper PMC5998384 are described below.

Data set [1] concerns HeLa Kyoto. Briefly: thermal stability score vs G1/S (z-score of summed log2 fold changes over temperatures); higher = more thermally stable than in G1/S.
Data set [2] deals with HeLa Kyoto. Briefly: solubility change mitosis vs G1/S (difference of NP-40 vs SDS log2 ratios) (log2 ratio difference); higher = more soluble in mitosis.
Data set [3] concerns HeLa Kyoto. Briefly: melting temperature (median over replicates), in situ; higher = more thermally stable.
The test system of data set [4] is HeLa Kyoto. Briefly: solubility in G1/S (NP-40 vs SDS abundance) (log2 ratio); higher = more soluble. Particulars: cell cycle stage: G1/S.
Where [5] appears, read: cell cycle stage: early G1 (4.5 h after nocodazole release).
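Throughout, for melting temperature (median over replicates), in situ: HeLa Kyoto cells synchronized by double thymidine or nocodazole block, proteins quantified by TMT10plex mass spectrometry, three independent biological replicates.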
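Throughout, for solubility change mitosis vs G1/S (difference of NP-40 vs SDS log2 ratios): synchronized HeLa Kyoto cells (double thymidine block for G1/S, nocodazole release for mitosis), protein amounts in NP-40 versus SDS lysates quantified by mass spectrometry, three biological replicates.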
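Throughout, for solubility in G1/S (NP-40 vs SDS abundance): HeLa Kyoto cells arrested at G1/S by double thymidine block, proteins quantified by TMT10plex mass spectrometry in mild NP-40 versus SDS extracts, three biological replicates.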
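Throughout, for thermal stability score vs G1/S (z-score of summed log2 fold changes over temperatures): synchronized HeLa Kyoto cells, proteins quantified by TMT10plex mass spectrometry, three biological replicates, mitosis taken 0.5 h after nocodazole release, G1/S directly after double thymidine block.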

On to “MADPDVLTEVPAALKRLAKYVIRGFYGIEHALALDILIRNSCVKEEDMLELLKFDRKQLRSVLNNLKGDKFIKCRMRVETAADGKTTRHNYYFINYRTLVNVVKYKLDHMRRRIETDERDSTNRASFKCPVCSSTFTDLEANQLFDPMTGTFRCTFCHTEVEEDESAMPKKDARTLLARFNEQIEPIYALLRETEDVNLAYEILEPEPTEIPALKQSKDHAATTAGAASLAGGHHREAWATKGPSYEDLYTQNVVINMDDQEDLHRASLEGKSAKERPIWLRESTVQGAYGSEDMKEGGIDMDAFQEREEGHAGPDDNEEVMRALLIHEKKTSSAMAGSVGAAAPVTAANGSDSESETSESDDDSPPRPAAVAVHKREEDEEEDDEFEEVADDPIVMVAGRPFSYSEVSQRPELVAQMTPEEKEAYIAMGQRMFEDLFE [GTF2E1]”, for which the figures for the thermal stability score in the data set on HeLa Kyoto [1] (setting [5]) and with HeLa Kyoto [1] (cell cycle stage: mitosis) were 2.94 and 5.05, respectively. Further, the “solubility change mitosis (log2)” value with HeLa Kyoto [2] was -0.0795. In addition, the figures for the melting temperature in the data set on HeLa Kyoto [3] (cell cycle stage: G1/S) and in the data set with HeLa Kyoto [3] (cell cycle stage: mitosis) were 48.4 °C and 49.4 °C, respectively. Besides, the “solubility in G1/S (log2)” value in the data set on HeLa Kyoto [4] was -0.111.

Turning to “MADQPKPISPLKNLLAGGFGGVCLVFVGHPLDTVKVRLQTQPPSLPGQPPMYSGTFDCFRKTLFREGITGLYRGMAAPIIGVTPMFAVCFFGFGLGKKLQQKHPEDVLSYPQLFAAGMLSGVFTTGIMTPGERIKCLLQIQASSGESKYTGTLDCAKKLYQEFGIRGIYKGTVLTLMRDVPASGMYFMTYEWLKNIFTPEGKRVSELSAPRILVAGGIAGIFNWAVAIPPDVLKSRFQTAPPGKYPNGFRDVLRELIRDEGVTSLYKGFNAVMIRAFPANAACFLGFEVAMKFLNWATPNL [SLC25A20]”, the figures for the thermal stability score in the data set with HeLa Kyoto [1] (setting [5]) and in the data set with HeLa Kyoto [1] (cell cycle stage: mitosis) were -1.89 and -0.401, respectively. Also, the “solubility change mitosis (log2)” value in the data set with HeLa Kyoto [2] was -0.108. Further, the melting temperature is 58 °C in the data set with HeLa Kyoto [3] (cell cycle stage: G1/S) and 56.7 °C with HeLa Kyoto [3] (cell cycle stage: mitosis). For the same sequence, in the data set on HeLa Kyoto [4], the “solubility in G1/S (log2)” value is -0.0167.

For “MADRDSGSEQGGAALGSGGSLGHPGSGSGSGGGGGGGGGGGGSGGGGGGAPGGLQHETQELASKRVDIQNKRFYLDVKQNAKGRFLKIAEVGAGGNKSRLTLSMSVAVEFRDYLGDFIEHYAQLGPSQPPDLAQAQDEPRRALKSEFLVRENRKYYMDLKENQRGRFLRIRQTVNRGPGLGSTQGQTIALPAQGLIEFRDALAKLIDDYGVEEEPAELPEGTSLTVDNKRFFFDVGSNKYGVFMRVSEVKPTYRNSITVPYKVWAKFGHTFCKYSEEMKKIQEKQREKRAACEQLHQQQQQQQEETAAATLLLQGEEEGEED [PURA]”, the thermal stability score in the data set with HeLa Kyoto [1] (setting [5]) was -2.25; in the data set with HeLa Kyoto [1] (cell cycle stage: mitosis) it was -4.83. In addition, the “solubility change mitosis (log2)” value in the data set with HeLa Kyoto [2] amounted to 0.112. Further, the melting temperature in the data set on HeLa Kyoto [3] (cell cycle stage: G1/S) was 58 °C; with HeLa Kyoto [3] (cell cycle stage: mitosis) it was 56.5 °C. In the data set on HeLa Kyoto [4], the “solubility in G1/S (log2)” value stood at 0.415.

Consider “MADREGGCAAGRGRELEPELEPGPGPGSALEPGEEFEIVDRSQLPGPGDLRSATRPRAAEGWSAPILTLARRATGNLSASCGSALRAAAGLGGGDSGDGTARAASKCQMMEERANLMHMMKLSIKVLLQSALSLGRSLDADHAPLQQFFVVMEHCLKHGLKVKKSFIGQNKSFFGPLELVEKLCPEASDIATSVRNLPELKTAVGRGRAWLYLALMQKKLADYLKVLIDNKHLLSEFYEPEALMMEEEGMVIVGLLVGLNVLDANLCLKGEDLDSQVGVIDFSLYLKDVQDLDGGKEHERITDVLDQKNYVEELNRHLSCTVGDLQTKIDGLEKTNSKLQEELSAATDRICSLQEEQQQLREQNELIRERSEKSVEITKQDTKVELETYKQTRQGLDEMYSDVWKQLKEEKKVRLELEKELELQIGMKTEMEIAMKLLEKDTHEKQDTLVALRQQLEEVKAINLQMFHKAQNAESSLQQKNEAITSFEGKTNQVMSSMKQMEERLQHSERARQGAEERSHKLQQELGGRIGALQLQLSQLHEQCSSLEKELKSEKEQRQALQRELQHEKDTSSLLRMELQQVEGLKKELRELQDEKAELQKICEEQEQALQEMGLHLSQSKLKMEDIKEVNQALKGHAWLKDDEATHCRQCEKEFSISRRKHHCRNCGHIFCNTCSSNELALPSYPKPVRVCDSCHTLLLQRCSSTAS [RUFY1]”, for which the thermal stability score in the data set on HeLa Kyoto [1] (setting [5]) turned out to be 0.538; in the data set on HeLa Kyoto [1] (cell cycle stage: mitosis) it was 1.01. Also, in the data set with HeLa Kyoto [2], the “solubility change mitosis (log2)” value was -0.0933. The melting temperature in the data set with HeLa Kyoto [3] (cell cycle stage: G1/S) was 49.5 °C; in the data set on HeLa Kyoto [3] (cell cycle stage: mitosis), 49.8 °C. For the same sequence, in the data set on HeLa Kyoto [4], the “solubility in G1/S (log2)” value amounted to 0.163.

In the case of “MADSELQLVEQRIRSFPDFPTPGVVFRDISPVLKDPASFRAAIGLLARHLKATHGGRIDYIAGLDSRGFLFGPSLAQELGLGCVLIRKRGKLPGPTLWASYSLEYGKAELEIQKDALEPGQRVVVVDDLLATGGTMNAACELLGRLQAEVLECVSLVELTSLKGREKLAPVPFFSLLQYE [APRT]”, the figures for the thermal stability score in the data set with HeLa Kyoto [1] (setting [5]) and in the data set on HeLa Kyoto [1] (cell cycle stage: mitosis) were 3.79 and 2.38, respectively. Besides, the “solubility change mitosis (log2)” value in the data set on HeLa Kyoto [2] is -0.0341. Moreover, the melting temperature in the data set with HeLa Kyoto [3] (cell cycle stage: G1/S) was found to be 57.1 °C; in the data set on HeLa Kyoto [3] (cell cycle stage: mitosis), 55.8 °C. In addition, the “solubility in G1/S (log2)” value with HeLa Kyoto [4] was 0.361.

Consider “MAEAALLLLPEAAAERDAREKLALWDRRPDTTAPLTDRQTDSVLELKAAAENLPVPAELPIEDLCSLTSQSLPIELTSVVPESTEDILLKGFTSLGMEEERIETAQQFFSWFAKLQTQMDQDEGTKYRQMRDYLSGFQEQCDAILNDVNSALQHLESLQKQYLFVSNKTGTLHEACEQLLKEQSELVDLAENIQQKLSYFNELETINTKLNSPTLSVNSDGFIPMLAKLDDCITYISSHPNFKDYPIYLLKFKQCLSKALHLMKTYTVNTLQTLTSQLLKRDPSSVPNADNAFTLFYVKFRAAAPKVRTLIEQIELRSEKIPEYQQLLNDIHQCYLDQRELLLGPSIACTVAELTSQNNRDHCALVRSGCAFMVHVCQDEHQLYNEFFTKPTSKLDELLEKLCVSLYDVFRPLIIHVIHLETLSELCGILKNEVLEDHVQNNAEQLGAFAAGVKQMLEDVQERLVYRTHIYIQTDITGYKPAPGDLAYPDKLVMMEQIAQSLKDEQKKVPSEASFSDVHLEEGESNSLTKSGSTESLNPRPQTTISPADLHGMWYPTVRRTLVCLSKLYRCIDRAVFQGLSQEALSACIQSLLGASESISKNKTQIDGQLFLIKHLLILREQIAPFHTEFTIKEISLDLKKTRDAAFKILNPMTVPRFFRLNSNNALIEFLLEGTPEIREHYLDSKKDVDRHLKSACEQFIQQQTKLFVEQLEEFMTKVSALKTMASQGGPKYTLSQQPWAQPAKVNDLAATAYKTIKTKLPVTLRSMSLYLSNKDTEFILFKPVRNNIQQVFQKFHALLKEEFSPEDIQIIACPSMEQLSLLLLVSK [COG3]”, for which the thermal stability score worked out at 0.629 in the data set on HeLa Kyoto [1] (setting [5]) and 1.07 with HeLa Kyoto [1] (cell cycle stage: mitosis). Besides, the “solubility change mitosis (log2)” value with HeLa Kyoto [2] is -0.0733. The melting temperature in the data set on HeLa Kyoto [3] (cell cycle stage: G1/S) was found to be 50.9 °C; in the data set on HeLa Kyoto [3] (cell cycle stage: mitosis), 49.7 °C. For the same sequence, the “solubility in G1/S (log2)” value in the data set on HeLa Kyoto [4] amounted to 0.235.
